According to the supplement of paper PMC10567573:

B1: VPS39 (parent)
chain: QQVKCIITEEKVCMVCKKKIGNSA
B2: GLTSCR2 (parent)
chain: YNPSFEDHQTLLSAAHEVELQRQK

Variants of: B1
Test: protein stability index of a GFP-peptide fusion (GPS, HEK-293T) (PSI 1-6); higher = more stable
Conditions: c terminus: a fixed tail appended
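Further: lentivirally expressed fusions sorted by FACS into six bins by GFP to DsRed ratio, PSI derived from sequencing read proportions per bin multiplied by bin number.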

Protein stability index: each site, then its substitutions
K19: C 3.48; H 2.12; W 1.76; Y 2.09; A 2.38; M 1.67; S 2.25; D 3.52; N 2.15; V 2.5; G 2.48; E 2.89; R 2.28; T 2.66; P 2.14; Q 2.19; F 1.72; L 2.56
S23: Q 2.5; P 2.4; T 2.78; D 3.6; F 1.95; I 1.73; V 2.19; K 3.09; E 4.07; G 3.05; R 2.77; H 2.98; L 1.45; Y 2.41; W 1.82; N 2.41; C 3.62; A 3.52
G21: N 3.01; Q 2.76; L 2.31; I 3.17; E 3.32; F 2.87; Y 2.3; M 2.13; V 3.1; A 2.98; W 1.76; R 2.16; T 2.51; K 3.08; D 2.81; C 3.19; S 2.7; H 2.93; P 2.55
C13: H 3.62; N 4.4; S 3.52; F 2.54; V 2.59; M 2.98; K 2.82; I 3.09; R 3.95; E 4.41; G 3.48; P 3.78; A 3.88; Q 3.78; L 3.1; D 4.67; Y 2.91; W 2.6; T 3.83
K17: W 2.66; P 3; S 2.82; Q 3.11; Y 3.09; G 3.58; H 2.46; L 1.42; N 3.05; V 1.54; C 3.34; M 2.29; T 2.5; F 2.85; E 3.21; I 1.74; D 3.68; R 2.27
K18: D 3.4; C 2.02; R 2.33; V 1.78; I 2.43; W 1.02; N 2.94; G 2.56; S 3.09; H 3.24; E 3.09; M 1.57; Q 2.5; P 2.37; A 2.88; L 2.16; F 1.98; Y 1.41; T 2.08
N22: E 3.33; C 2.98; F 2; V 2.11; K 2.79; R 1.84; H 2.25; G 1.42; S 2.62; W 1.81; M 2.75; D 3.7; A 2.21; L 2.57; I 1.75; T 2.29; Y 1.99; Q 3.38
M14: N 2.67; H 3.13; V 2.8; K 3.44; E 3.61; I 2.14; Q 3.06; T 3.3; Y 2.57; W 2.02; C 4.14; F 2.89; A 2.49; P 3.15
A24: P 3.03; N 2.84; Y 2.57; M 2.54; L 1.74; E 2.48; Q 2.79; K 3.03; S 2.37; H 2.23; C 3.03; I 2.49; W 2.07; V 2.24; F 2.1; T 2.93; D 3.35; G 2.29
I20: R 3.26; Q 3.53; L 3.15; C 3.26; G 2.79; P 3.17; A 3.35; M 3.33; K 3.58; D 3.51; H 4.29; T 2.89; E 4.03; F 3.06; V 1.95; S 3.67; Y 3.15; N 2.69
V15: L 2.82; F 2.92; Y 2.17; D 3.34; C 3.26; E 4.38; I 2.27; P 3.99; A 3.32; Q 2.6; R 3.07; W 2.97; H 3.43; K 3.05; T 3.68; G 2.71; N 3.08; M 2.83; S 3.74
C16: E 4.29; G 4.28; P 4.22; I 2.19; Y 3.69; N 3.88; T 3.72; L 3.07; Q 3.93; D 4.91; H 3.79; A 3.96; F 3.15; R 4.5; W 2.5; M 3.13; K 3.41; S 3.45
V12: Y 2.31; K 2.94; L 2.86; I 3.06; Q 2.5; W 1.98; N 3.68; P 3.44; R 2.88; M 2.81; T 2.69; S 3.41

Variants of: B2
Test: as above
Conditions: c terminus: a fixed tail appended

Protein stability index of substitutions, site by site:
Y1: N 4.71; C 4.78; H 5.16; V 5.11; R 5.37; F 3.65; D 5.25; Q 5.07; L 5.03; G 5.36; K 4.87; W 4.16; S 5.38; E 4.87; A 4.93; P 5.16; T 4.67; M 4.96; I 4.74
N2: L 5.05; E 4.46; C 2.74; F 3.81; A 2.13; P 4.76; D 5.66; V 1.6; K 4.28; G 4.39; I 3.38; S 3.91; Q 4.47; W 4.2; R 4.29; T 3.36; H 2.97; M 4.34; Y 4.29
E6: D 4.14; F 2.51; L 3.04; C 3.25; G 3.42; H 3.18; M 2.38; N 3.33; K 2.72; A 3.1; I 3.12
F5: A 4.22; K 2.48; H 4.09; S 3.88; I 4.07; W 3.07; L 3.43; M 3.5; E 4.9; P 4.02; R 3.96; G 4.06; Y 3.68; Q 4.62; D 5.24; N 4.43; C 4; V 3.83; T 4.28
P3: Q 5.13; F 4.06; L 4.3; T 5.01; R 3.85; K 4.3; H 4.67; C 3.37; S 4.28; G 4.35; V 3.73; D 4.32; Y 3.97; A 4.25; I 3.82; M 4.08; W 1.9; N 4.45; E 5.06
S4: E 4.72; A 4.1; R 4.65; L 3.95; Q 4.28; G 3.88; M 4.21; N 4.48; Y 4.27; W 3.67; K 4.17; H 4.26; I 3.82; D 4.72; T 3.79; V 4.02; C 4.07; F 4; P 4.69
